Assay: label from the status in PepcDB records

Sequence | protein production
MKLSDFIKTEDFKKEKHVPVIEAPEKVKKDEKVQIVVTVGKEIPHPNTTEHHIRWIKVFFQPDGDPYVYEVGRYEFNAHGESVQGPNIGAVYTEPTVTTVVKLNRSGTIIALSYCNIHGLWESSQKITVEE | not failed
MKLSMQMLKKSSLIPSDLTDTLLLVGSGWDDYSFKTSFTVMHFGPDAKKTELGTTKIGYKDQQHGWTSEKFSTKNISLSDDFFSLGQDVDFYRKLQGGLSADAALAVLQALKDVIADPLRLEDVKNEQVFRESLMRNVSWSVIRDQFKRVLAGKPELTSFHFSYQTNGDEQRAGVDVSFKVTPHSLPSTNVHVLIGRNGVGKTTILNDMVETILSDTTGRPHCGKFLIYDSLGSEPMPTDYFSSVVSVSFSAFDPFLFPADQPDRSKGVAYFYVGMQSPGEGPGKRPPKTTEALTEDFITSLESCFSQESKRQRWVAAIKRLESDSNFEDMDLAHLNELPTDEAIVKAHRIFSRMSSGHSIVLLTLTKLVEAVEEKTLVLMDEPESHLHPPLLSAFTRAISDLLQDRNGVAIIATHSPVVVQEAPGSCVWKLTRLRAEGRADRPERETFGENAGVLTREIFGLEVNKSGYHEVLQEAVNRGGTFESILADYQEQLGFEAQAILRKMVASRRES | failed
MKLSSEKLPKNPFSLSQYAAKQQKFFQWKKEKPDYYLHANLVDTALQFLKERIRRGDAMAYFLRGQLYFEEGWYEEALAQFEEIQEKDHQAIYQLGVMYYDGLGTIANAEKGVNYMRKILDSSCPQTMHLKFAAAYNLGRAYFEGKGVKRSDEEAERLWLLAADNGNPKASVKAQSILGLFYSMKEPKELEKAFFWHSEACGNGSLESQGALGLMYFYGQGIRQDTDAALHCLREAAERGNVYAQGTLVEYYYKMKFFTKCVSFSKRIADYDEVHDIPMIAHVTDCLPEFIIKGMAMAAFYHGRCLQLGLGIMKDEESAKHYYSKACRLNPTLADELHSLLIHQRI | failed
MKLTHSFIKQQARLGLNFFRYLLARMNHDRVNVNAGYLAYITLLSMVPMLTVLLSILSSFALFANAGEVIQDFVITHFVPAAGEVVKTALIEFVANTGKMTAVGGAFLFVAAIMLISNIDKNLNYIWRVQQKRRAVFSFSMYWMILTLGPILVGASIAATSYITSLKILDNEALSGVYNLFLRWLPFVLSYCAFVGLYLLVPNKKVHWQHAMLGALIAAILFELSKKGFAAYITQFPSYQLIYGALAAIPILFVWVYLCWLIVLVGAEVTAALGEREHWSDSQDMLHFAPLPKNEKE | not failed
MKLVVCSESDTAGQNIKDNLLTFADFEEKDVGEFKLYLSDEFYIAETKERLIYADHIDEKLAKYIDFEEILFASRHSSKDGRKIFTVHVSGNVGTADFGGKPYSLAKPSPQTMKNYVLALRERLDRKPEFEFTMEVTHHGPSEISKPSAFYEIGSTEEEWKDREAAEVVAEAMLDAIRAEKMDWNVAVGVGGTHYAPRQTEIMLTTTFTFGHNFAKYTFEHLTAEFLVKAVKLSEAEYIIIDEKSVNSAVKKIVNEAAEVAGVEVLKSKKVKKDFRLV | not failed
MKLWENGTFYQMTAEGEQVSAVLTKNGQIHAVGEVADLKKQYATEIDETIDLEGKVVFPGFVDAHIHLLWYGQALERLNLNQTTTKKEALALEHHHHHH | not failed
MKMDTGALTFQQKIYWLVKQIPLGRVATYGQIAALCGWPRHGRYVGYALYRVAPNSDIPWHRVVNAQGKISYAPQRRGTDELQRWRLAAEGIIFTAGDRINLRRYQWQPPATVYQQLIWPEGAATDSAKAKVG | failed
MKMDYKEQSHIIPTYKRFDIVLEKGQGVYLFDDKAKKYLDFSSGIGVCALGYNHAKFNAKIKAQVDKLLHTSNLYYNENIAAAAKNLAKASALERVFFTNSGTESIEGAMKTARKYAFNKGVKGGQFIAFKHSFHGRTLGALSLTANEKYQKPFKPLISGVKFAKYNDISSVEKLVNEKTCAIILESVQGEGGINPANKDFYKALRKLCDEKDILLIADEIQCGMGRSGKFFAYEHAQILPDIMTSAKALGCGLSVGAFVINQKVASNSLEAGDHGSTYGGNPLVCAGVNAVFEIFKEEKILENVNKLTPYLEQSLDELINEFDFCKKRKGLGFMQGLSLDKSVKVAKVIQKCQENALLLISCGENDLRFLPPLILQKEHIDEMSEKLRKALKSF | not failed
MKMISTIQKKETVMVAPIPAKRGRKPAVATAPATGQVQSLTRGLKLLEWIAESNGSVALTELAQQAGLPNSTTHRLLTTMQQQGFVRQVGELGHWAIGAHAFMVGSSFLQSRNLLAIVHPILRNLMEESGETVNMAVLDQSDHEAIIIDQVQCTHLMRMSAPIGGKLPMHASGAGKAFLAQLSEEQVTKLLHRKGLHAYTHATLVSPVHLKEDLAQTRKRGYSFDDEEHALGLRCLAACIFDEHREPFAAISISGPISRITDDRVTEFGAMVIKAAKEVTLAYGGMR | not failed
MKNFFNHIELKFANLLSKISFMLLMVVGLLMVYFLFREVYNLVLLAFLSESEVHYYDILESILSFFIFFEFLTLIITSLRNKGHVSLIFLLSLGITSLIRLLLTYHERLVGVLLIASAILILIIGVFVLKKFVFPNDDTADYF | failed
MKNFLETIEDMILIINREGRLLYANTAVPKKLGYPHEELMSMHILTITSAGKMAEGEKILAELFAGKKESLPLSLEKKEGTSIPAKARIWQGKWHNEPCLFAIIKDLSKEERASSPPFLEHHHHHH | not failed
MKNFVVKTIANAGALAVAVWLLDKITLTGDSTGKKIGTLIVVALVFGLVNFLVKPIVKVLTFPLFILTLGLITLVVNALMLLLTSWLADKLDLSFHVEGFWTAVVGGLIISVVSWALNVVLPDDKD | failed
MKNIVAGILAHVDSGKTTLSEAMLYQTGRIRKLGRVDHQDTYLDTDSQEKDRGITIFSKQAELTYEDMHIALLDTPGHVDFGTEMERTLQVLDYAVLVINGMDGVQSHTETLWKLLERYEIPVFIFVNKMDMTGYDREYLMDNIRHRLSDGCVDFLCEDAGEHIAMCDENMLERFLETGENREDDIAKAVADRKLFPCYFGSALKNDGVAELLDGMNRYVTEPRRTDEFGARVFKIGRDDKGERLTYMKITGGTLRLKDVLTLTGRQGEETLEKVNQIRVYSGAKYDMVDHVTAGCVCAVPGLVNTYGRQGIGACPDGELPSLEPVLSYKVMYPTDVDAVTMVSKLRQLEEEDPLLQVQWNEAAGEIYIKVMGQVQLEVVAQMVRDRFGIAITYGQGRITYKETIAAPVMGVGHFEPLRHYAEVHLLLEPMENGSGMCFDSICSEDVLDKNWQRLILTHLQEREFRGVLTGSPITDMKITITAGRAHQKHTEGGDFRQATYRAVRQGLMMAESVLLEPVYAFKIEVPQEYAGRVLADIVKMSGSMDGQEIAGETTVITGHAPVYTMREYYSELTAFSRGTGRLQVDIDGYQPCHNTEEVLAERHYDPELDRFNPSSSVFCAHGAGYLVDWYDVYENMHVKEDPGFEISGQLGYTEDGDVTDIPVNRPGKSVSDMSITDEELSEIFARTFGGDYKDKDVALNGRFRRTTSEYKVNGTSSRGSDGTAGGGASAGTAGDSSNSGYRGNGQYNKSQSRDRQPGNGPVVGSRPADRGIATPGAFKRRKSGEDYVIVDGYNVIFAWDTLRELSEHNIDSARGKLMDILSNYQGYMNCHLIVVFDGYKVKDNKGERFPYDDIEVVYTKEGETADAHIEKLTHELARKHKVTVVTSDGLEQIVTMGQGAIRMSSRDFKLEVERVNEHLRENYLKND | failed
MKNLLKRYVSIKNIIKVIELDFFANLKLRYYKLAMKLFKIEDEKFDEILLKAGMNAVSSTYLPVVFLTSIILGLIIFIIFLIVFNIFYAIFGLIGGIFIVILIGVLYPYVLAEEKAKSIDENLPYAFAFISALSSANIPVVEIFTSLSKEDIYGGMSKEAKEIVKDTKVFNYDIITTFLRRARITPSKKLSSVYYNIVASLIVGAEMKNIFHEIYERLMEDRKLELFEAIEKVEILSEFYVIACGMIPLFVVMTVPVASSISAILQTASLFGDPKLLPLTFYLWVPIASIIFMGLVYGILPKDFKLNVSLLDVLKEFDEPEIEGIKMKFKWKPVHFITLFFWMLSIISFMLFFIRKSIFKFHGTDFLMFGILFLILPFILTSYWHFIIENQKERYYPIFLNDLTMAVRSGMDIIRAMQVCARTNYGPLTKIVKKMAIQMSWGRPVNEVFADLERTEKSLIAKRIASILKECAVSGGDVKDILTSVTVHAYKLSEMKREISARQFIYVVVIYLSFFLYIGTSYIMVHSLLPTLLKNIHGLSVEFYKNYLFQGILIYSIFSGASLGILTERSIIAGIKHILLMLIVGYMLFKFYIGG | failed
MKNRALLLIDFQKGIESPTQQLYRLPAVLDKVNQRIAVYRQHHAPIIFVQHEETELPFGSDSWQLFEKLDTQPTDFFIRKTHANAFYQTNLNDLLTEQAVQTLEIAGVQTEFCVDTTIRMAHGLGYTCLMTPKTTSTLDNGHLTAAQIIQHHEAIWAGRFLTFLSL | not failed
MKNTPIERNVIDETINEFQIVDFSKATIREVKAIASKAEAVSGVEFIKMEMGVPGLPASAVGVKAEIEALQNGIASLYPDINGLPELKKEASDFIKAFINVDLSPEGCVPVTGSMQGTFASFLTCSQCDEKKDTILFIDPGFPVQKQQLVVMGQKYETFDVYDYRGDKLKEKLESYLRKGNISAIIYSNPNNPSWICLKDEELRIIGELATQYDVIVLEDLAYFAMDFRQDLSTPYQAPFQPSVAHYTDNYVLLISGSKAFSYAGQRIGVSCISDKLYHRSYPGLTKRYGGGTFGTVFIHRVLYALSSGTSHSAQYAMAAMLKAANEGQYNFLSEVKVYGDRAQKLKEIFLRHGFYLVYDNDLGDPIADGFYFTIGYPGMTSGELAKELMYYGVSAISLVTTGSHQEGLRACTSFIKDHQYAQLDERMKLFAEHHPIA | not failed
MKNVGDLMQRLQKMMPAHIKPAFKTGEELLAWQKEQGAIRSAALERENRAMKMQRTFNRSGIRPLHQNCSFENYRVECEGQMNALSKARQYVEEFDGNIASFIFSGKPGTGKNHLAAAICNELLLRGKSVLIITVADIMSAMKDTFRNSGTSEEQLLNDLSNVDLLVIDEIGVQTESKYEKVIINQIVDRRSSSKRPTGMLTNSNMEEMTKLLGERVMDRMRLGNSLWVIFNWDSYRSRVTGKEY | failed
MKNVKFIKKSESVIGLWLPILVILILFAFLVAESVIMKDIILSNSVVALATAIMASAALVTILVSNRQVQLMARQQRLKAIEDRLEKFYIPLIKAFSSYVYTAQTEDEIETIITCRRYLAGNNLLRVLPMHFKFKADKIAGSANWTFYAKEDFEQWKEALDVLWEEFLEVLKEYYTLSGTEISLPEKPDWLIGYK | failed
MKNVLYTLFAISICLMLGKLANYLLAALPASLYGMIIYALFLQLNWFSPDKITKTNQWFIKHMGVCLVPAGMGIINHFQLIQQHGIALVVIIFSSTFILLTVIGYLSERYLITPDNIKSKAPTGSR | failed
MKPADLTNADRIALELGHAGRNAIPYLDDDRNADRPFTLNTYRPYGYTPDRPVVVVQHGVLRNGADYRDFWIPAADRHKLLIVAPTFSDEIWPGVESYNNGRAFTAAGNPRHVDGWTYALVARVLANIRAAEIADCEQVYLFGHSAGGQFVHRLMSSQPHAPFHAVTAANPGWYTLPTFEHRFPEGLDGVGLTEDHLARLLAYPMTILAGDQDIATDDPNLPSEPAALRQGPHRYARARHYYEAGRRAAAQRGLPFGWQLQVVPGIGHDGQAMSQVCASLWFDGRMPDAAELARLAGSQSA | failed
MKPALHAIDATLPAPPTYTPAGNECALFEHAWKRRVPLLLKGPTGCGKTRFVAHMAARLGLPLFTVSCHDDLTAADLTGRYLLKGGETVWVDGPLTRAVRQGGICYLDEVVEARKDVAVVLHPLADDRRVLPLERTGEELQAPPHFMLVVSYNPGYQSLLKALKPSTRQRFAAIEFGFLAPEQEIAVVAAESGLPSERVAPLVALAGRLRKLKGHDLEEGVSTRLLVYCASLISEGLPVRDAVLAGLIEPLTDDADVKAALIEVAGVVIGLEHHHHHH | not failed
